Test results reported in PMC8897147.

Biological target: SV1, splice variant of GHRHR, -Rluc8
Assay: FRET or BRET

Chain of SV1, splice variant of GHRHR, -Rluc8 (Q02643 23-423, change not shown): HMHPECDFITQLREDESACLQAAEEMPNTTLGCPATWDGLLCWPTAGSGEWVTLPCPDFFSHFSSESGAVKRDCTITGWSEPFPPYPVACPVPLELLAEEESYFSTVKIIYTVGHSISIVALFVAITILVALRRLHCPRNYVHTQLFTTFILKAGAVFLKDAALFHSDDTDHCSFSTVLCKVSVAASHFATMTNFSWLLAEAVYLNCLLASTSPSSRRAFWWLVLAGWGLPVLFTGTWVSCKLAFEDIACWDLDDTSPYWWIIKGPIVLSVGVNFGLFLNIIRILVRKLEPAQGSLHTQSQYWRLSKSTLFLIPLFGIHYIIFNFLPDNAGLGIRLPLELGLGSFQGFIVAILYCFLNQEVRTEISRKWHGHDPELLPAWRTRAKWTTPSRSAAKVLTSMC
Chain of RAMP2-Ypet (receptor activity-modulating protein 2) (O60895 43-175): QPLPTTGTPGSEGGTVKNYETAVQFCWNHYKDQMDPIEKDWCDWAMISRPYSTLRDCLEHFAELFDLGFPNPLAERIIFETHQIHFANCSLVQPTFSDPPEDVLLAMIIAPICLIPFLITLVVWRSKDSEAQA

BRET50 (Kd) (intensity ratio of RAMP:receptor)	Substance
4.4	RAMP1-Ypet (receptor activity-modulating protein 1) (from UniProt O60894 27-148) (natural protein)
2.36	RAMP2-Ypet (receptor activity-modulating protein 2) (from UniProt O60895 43-175) (natural protein)
